Patent publication US20180147281A1 (Astellas, published 2018)

B1: fully human anti-human NGF antibody 1-15 (N52D-A)-Fab' fragment (Fab, V domains shown)
VH: QVQLQQWGAGLLKPSETLSLTCAVYGGSFSGYYWSWVRQPPGKGLEWIGEIDHSGSTNNNPSLKSRVTISVGTSKNQFSLKLSSVTAADTAVYYCSRDGGPESGMGAFDIWGQGTMVTVSS
VL: not shown
B2: Tanezumab (antibody, V domains shown)
VH: QVQLQESGPGLVKPSETLSLTCTVSGFSLIGYDLNWIRQPPGKGLEWIGIIWGDGTTDYNSAVKSRVTISKDTSKNQFSLKLSSVTAADTAVYYCARGGYWYATSYYFDYWGQGTLVTVSS
VL: DIQMTQSPSSLSASVGDRVTITCRASQSISNNLNWYQQKPGKAPKLLIYYTSRFHSGVPSRFSGSGSGTDFTFTISSLQPEDIATYYCQQEHTLPYTFGQGTKLEIKR

Key:
[1] = target: T1, human NGF (R&D Systems, 256-GF-100/CF) (human, UniProt P01138 122-241, in the competitive ELISAs biotinylated with EZ-Link NHS-PEG4-Biotin (sites not given); unlabelled when immobilized in the binding ELISA); assay: human NGF-trkA competitive ELISA, trkA immobilized, biotinylated human NGF; geometric average of two runs
T1 construct: Commercial recombinant protein; also called biotinylated human NGF; nerve growth factor

[2] = target: T1, human NGF (R&D Systems, 256-GF-100/CF); assay: human NGF-trkA competitive ELISA, IC50 after against before incubation
[3] = target: T1, human NGF (R&D Systems, 256-GF-100/CF); assay: human NGF-trkA competitive ELISA after incubation of the antibody 14 days at pH 6 and 50 C; geometric average of two runs
[4] = target: T1, human NGF (R&D Systems, 256-GF-100/CF); assay: ELISA, human NGF immobilized, detection with biotinylated anti-human kappa light-chain antibody; geometric average of two runs
[5] = target: T1, human NGF (R&D Systems, 256-GF-100/CF); assay: human NGF-trkA competitive ELISA; geometric average of three tests

Row | Binder | IC50 [1] | increase rate of the IC50 value after incubation for 14 days at 50 C relative to that before the incubation [2] | IC50 [3] | EC50 [4] | IC50 [5]
1 | B1 | 0.3 µg/mL | 59% | 0.47 µg/mL |  | 
2 | B2 |  |  |  | 0.146 µg/mL | 0.86 µg/mL
